± gives the uncertainty stated by the source.
B1: Calcium-binding protein 2, residues 155 to 219; numbered along this chain, Q9NPB3 (parent)
chain: RELRDAFREFDTNGDGRISVGELRAALKALLGERLSQREVDEILQDVDLNGDGLVDFEEFVRMMS
B2: Chromodomain-helicase-DNA-binding protein 4, residues 365 to 417; numbered along this chain, Q14839 (parent)
chain: YETDHQDYCEVCQQGGEIILCDTCPRAYHMVCLDPDMEKAPEGKWSCPHCEKE

Variants of: B1
Assay: abundance fitness (aPCA) (normalised: wild type 0, dead -1); higher = more abundant; growth selection in yeast, the domain comes from the species named
Details: Homo sapiens

Abundance fitness: each site, then its substitutions
S19: K -0.529 ± 0.1, I -0.462 ± 0.17, A -0.372 ± 0.098, Q -0.584 ± 0.09, H -0.459 ± 0.16, E -0.169 ± 0.1, F -0.462 ± 0.19, M -0.285 ± 0.39, P -0.43 ± 0.081, D -0.059 ± 0.19, L -0.532 ± 0.085, N 0.049 ± 0.081, G -0.045 ± 0.1
F10: W -0.076 ± 0.11, P -0.864 ± 0.079, T -0.144 ± 0.096, C -0.143 ± 0.079, V -0.048 ± 0.065, A 0.11 ± 0.071, K -0.155 ± 0.12, D -1.13 ± 0.17, G -0.417 ± 0.081, R -0.1 ± 0.059, L -0.449 ± 0.062, E -0.445 ± 0.059, H 0.09 ± 0.065, S -0.148 ± 0.074, M -0.426 ± 0.12, Q 0.156 ± 0.083, I -0.038 ± 0.11
L3: A -0.302 ± 0.064, M 0.012 ± 0.068, T -0.281 ± 0.081, W -0.187 ± 0.1, P -0.441 ± 0.11, N -0.345 ± 0.16, F -0.113 ± 0.2, V -0.15 ± 0.058, I -0.095 ± 0.2, C -1 ± 0.25, Y -0.139 ± 0.17, E -0.274 ± 0.12, Q 0.018 ± 0.095, R -0.729 ± 0.073, D -0.497 ± 0.17, S -0.473 ± 0.13
E9: S -0.133 ± 0.046, P -0.451 ± 0.058, M -0.135 ± 0.092, G -0.016 ± 0.095, H -0.429 ± 0.37, L -0.201 ± 0.051, D 0.003 ± 0.12, Y -0.244 ± 0.22, V -0.03 ± 0.083, W -0.416 ± 0.069, R 0.085 ± 0.048, A -0.189 ± 0.071, T 0.039 ± 0.074, Q -0.032 ± 0.068, F -0.294 ± 0.16
R1: C -0.26 ± 0.16, K 0.12 ± 0.37, M 0.206 ± 0.21, A -0.114 ± 0.33, S -0.113 ± 0.1, N 0.078 ± 0.084, G -0.204 ± 0.11, T -0.007 ± 0.19, E 0.423 ± 0.36
G16: I -1.2 ± 0.22, W -0.454 ± 0.091, Q -0.223 ± 0.065, E -0.1 ± 0.1, V -1.14 ± 0.094, L -0.669 ± 0.064, F -0.992 ± 0.31, S -0.261 ± 0.055, C -0.527 ± 0.11, H -0.897 ± 0.39, A -0.332 ± 0.046, M -0.376 ± 0.15, D 0.023 ± 0.12, Y -0.743 ± 0.33, P -1.19 ± 0.13, R -0.428 ± 0.06
R8: P -0.573 ± 0.06, M -0.043 ± 0.083, C -0.141 ± 0.23, N -0.023 ± 0.19, K -0.068 ± 0.15, V -0.162 ± 0.054, A -0.04 ± 0.058, Q -0.1 ± 0.087, D 0.045 ± 0.12, S 0.01 ± 0.084, G -0.238 ± 0.096, I -0.156 ± 0.14, E -0.004 ± 0.1, Y -0.153 ± 0.23, T 0.031 ± 0.11
F7: C -0.422 ± 0.1, Q -0.803 ± 0.13, G -1.03 ± 0.058, N -1.44 ± 0.4, Y -0.259 ± 0.12, T -0.713 ± 0.096, H -1.18 ± 0.35, P -0.997 ± 0.11, M -0.33 ± 0.072, E -0.841 ± 0.1, W -0.142 ± 0.053, I -0.644 ± 0.12, K -1.12 ± 0.12, V -0.891 ± 0.078, R -0.995 ± 0.062
R17: M -0.099 ± 0.096, T -0.217 ± 0.074, Y -0.02 ± 0.29, C 0.141 ± 0.088, K 0.017 ± 0.11, L 0.045 ± 0.066, W -0.159 ± 0.067, Q -0.193 ± 0.11, F -0.021 ± 0.16, N -0.14 ± 0.47, E -0.295 ± 0.1, V -0.158 ± 0.053, I -0.141 ± 0.12, A 0.001 ± 0.058, G 0.045 ± 0.055, P -0.701 ± 0.082, S -0.087 ± 0.078
D11: R -1.18 ± 0.11, P -0.992 ± 0.13, K -1.16 ± 0.26, V -1.02 ± 0.092, C -0.546 ± 0.11, L -0.937 ± 0.099, S -0.633 ± 0.061, M -1.17 ± 0.21, E -0.972 ± 0.097, W -0.631 ± 0.095, Q -0.434 ± 0.099, A -0.677 ± 0.057, Y -0.651 ± 0.3, T -0.769 ± 0.099, H -1.17 ± 0.26
T12: W -0.538 ± 0.11, Q -0.148 ± 0.13, N 0.007 ± 0.22, S -0.035 ± 0.072, D -0.42 ± 0.13, G -0.04 ± 0.054, V -0.351 ± 0.072, P -0.695 ± 0.12, R -0.201 ± 0.056, E -0.087 ± 0.13, C -0.148 ± 0.1, H 0.039 ± 0.23, K -0.03 ± 0.15, M -0.349 ± 0.087, F -0.493 ± 0.18, L -0.279 ± 0.07
D5: G -0.318 ± 0.05, E -0.054 ± 0.056, C -0.178 ± 0.069, S -0.382 ± 0.047, M -0.171 ± 0.061, F -0.066 ± 0.078, A -0.226 ± 0.049, L -0.32 ± 0.042, Y -0.451 ± 0.087, H -0.159 ± 0.062, R -0.119 ± 0.038, Q -0.007 ± 0.075, P -0.665 ± 0.064, T 0.038 ± 0.058, I -0.219 ± 0.08, V -0.19 ± 0.051, W -0.491 ± 0.071, N -0.034 ± 0.059
E2: H -0.086 ± 0.13, Q -0.114 ± 0.064, W -0.344 ± 0.075, Y -0.306 ± 0.15, C -0.472 ± 0.19, K -0.158 ± 0.1, L -0.612 ± 0.058, A -0.509 ± 0.084, D -0.677 ± 0.37, T -0.093 ± 0.067, R -0.128 ± 0.058, S -0.355 ± 0.13, V -0.357 ± 0.091, P -0.21 ± 0.076, G -0.15 ± 0.096
R4: H -0.074 ± 0.1, E 0.217 ± 0.27, Y -0.544 ± 0.36, L -0.526 ± 0.069, T -0.138 ± 0.097, S -0.276 ± 0.083, D -0.052 ± 0.15, Q -0.21 ± 0.11, A -0.28 ± 0.099, M -0.144 ± 0.095, N -0.027 ± 0.12, F -0.321 ± 0.16, G -0.255 ± 0.086, K 0.064 ± 0.077, V -0.107 ± 0.049
A6: T 0.173 ± 0.061, P -0.952 ± 0.1, V 0.026 ± 0.06, H -0.479 ± 0.2, R 0.089 ± 0.044, C 0.085 ± 0.1, S -0.011 ± 0.087, W -0.111 ± 0.053, L -0.008 ± 0.048, E -0.076 ± 0.073, N 0.042 ± 0.21, K 0.157 ± 0.088, G -0.328 ± 0.048, D -0.709 ± 0.2
N13: V -0.668 ± 0.071, T -0.404 ± 0.095, L -0.974 ± 0.1, D -0.019 ± 0.11, A -0.537 ± 0.084, Q -0.924 ± 0.14, P -0.811 ± 0.093, Y -1.12 ± 0.34, S -0.555 ± 0.09, G -0.693 ± 0.12, C -0.489 ± 0.26, R -0.477 ± 0.076, H -0.644 ± 0.087, E -0.459 ± 0.1, M -0.797 ± 0.093, K -0.676 ± 0.13
G14: E -0.165 ± 0.14, W -0.718 ± 0.081, C -0.264 ± 0.18, R -0.018 ± 0.058, T -0.547 ± 0.12, D -0.188 ± 0.17, L -0.226 ± 0.079, V -0.672 ± 0.067, M -0.308 ± 0.11, Q 0.023 ± 0.077, S -0.198 ± 0.083, K 0.003 ± 0.11, P -0.621 ± 0.081
I18: N -1.01 ± 0.33, K -0.691 ± 0.17, L 0.114 ± 0.054, T -0.763 ± 0.11, E -1.01 ± 0.17, Y -0.592 ± 0.27, R -0.808 ± 0.073, H -0.917 ± 0.23, G -0.97 ± 0.12, A -0.736 ± 0.095, F -0.747 ± 0.16, M 0.081 ± 0.065, V -0.045 ± 0.13, C -0.311 ± 0.11, P -1.15 ± 0.22, D -0.965 ± 0.22

Variants of: B2
Assay: as above
Details: Homo sapiens

Abundance fitness, by site and new letter:
C50: N -0.313 ± 0.29, M -0.819 ± 0.22, W -0.619 ± 0.12, D -0.17 ± 0.16, E -0.366 ± 0.15, Q -0.767 ± 0.24, I -0.526 ± 0.28, K -0.344 ± 0.17, R -0.555 ± 0.098, F -0.567 ± 0.19, Y -0.679 ± 0.15, L -0.517 ± 0.14, A -0.271 ± 0.13, S -0.222 ± 0.11, T -0.624 ± 0.2
H49: Y -0.169 ± 0.18, W -0.175 ± 0.15, V -0.185 ± 0.099
E53: R -0.04 ± 0.15, G -0.252 ± 0.13, D -0.551 ± 0.45, C -0.263 ± 0.25, W 0.113 ± 0.22, H -0.378 ± 0.33, I -0.335 ± 0.39, L -0.133 ± 0.32, V -0.356 ± 0.19, T -0.717 ± 0.41, N -0.57 ± 0.38, A -0.207 ± 0.16, Y -0.323 ± 0.39, S -0.023 ± 0.16
E51: Y -0.221 ± 0.23, L -0.275 ± 0.11, I -0.331 ± 0.22, S -0.127 ± 0.11, F -0.392 ± 0.2, T -0.174 ± 0.15, M -0.03 ± 0.15, P -0.007 ± 0.12, G 0.132 ± 0.091, N -0.357 ± 0.48, D -0.111 ± 0.28, Q -0.371 ± 0.2, W -0.338 ± 0.11, C -0.227 ± 0.13
K52: C -0.105 ± 0.16, A -0.233 ± 0.12, W -0.346 ± 0.14, N -0.007 ± 0.21, R -0.106 ± 0.11, M -0.376 ± 0.23, L -0.088 ± 0.11, S 0.161 ± 0.14, I -0.586 ± 0.21, P -0.072 ± 0.16, D -0.39 ± 0.23, V -0.176 ± 0.099, E 0.136 ± 0.16, G -0.204 ± 0.12, H 0.286 ± 0.23, T 0.06 ± 0.16, Q -0.134 ± 0.18

Source: the Human Domainome abundance scans (Beltran et al. 2025)
